Data as given in paper PMC5342261, “Boosting of HIV envelope CD4 binding site antibodies with long variable heavy third complementarity determining region in the randomized double blind RV305 HIV-1 vaccine trial” (PLoS Pathogens, 2017).

What was measured:
AE.A244gp120 [1] = target: AE.A244gp120 (HIV-1); experiment: ELISA; blocking ELISA; AE.A244gp120 on the plate; mAbs diluted 3-fold from 100 ug/mL added for 1 h, wash, biotinylated VRC01 or CH31 for 1 h, streptavidin-HRP; details: both partners purified
AE.A244gp120 [2] = target: AE.A244gp120 (HIV-1); experiment: SPR; details: both partners purified

Binder | binding result (AE.A244gp120 [1]) | binding result (AE.A244gp120 [2])
VRC01 (antibody, V domains shown, also called CD4 bs bnAb VRC01) VH: QVQLVQSGGQMKKPGESMRISCRASGYEFIDCTLNWIRLAPGKRPEWMGWLKPRGGAVNYARPLQGRVTMTRDVYSDTAFLELRSLTVDDTAVYFCTRGKNCDYNWDFEHWGRGTPVIVSS VL: EIVLTQSPGTLSLSPGETAIISCRTSQYGSLAWYQQRPGQAPRLVIYSGSTRAAGIPDRFSGSRWGPDYNLTISNLESGDFGVYYCQQYEFFGQGTKVQVD | binds | –
DH576 Unmutated Common Ancestor (UCA) (antibody, V domains shown, also called DH576 UCA; UCA of DH576; source: recombinantly expressed) VH: QVQLVESGGGVVQPGRSLRLSCAASGFTFSSYGMHWVRQAPGKGLEWVAVISYDGSNKYYADSVKGRFTISRDNSKNTLYLQMNSLRAEDTAVYYCARDRARSSGYFGGIYYYYYGMDVWGQGTTVTVSS VL: not shown | – | binds
